Measurements published in the supplement of paper PMC7125110.
± gives the standard error. Variants at the floor of the assay were thinned out.

B1: glmS ribozyme (parent)
chain: AUAAAAGCGCCAGAACUACAGAAAUGUAGUUGACGAGGAGGAGGUUUAUCGAAUUUUCGGCGGAUGCCUCCAAA

Assays:
Conditions in all cases: with glucosamine-6-phosphate
glucosamine-6-phosphate [1] = variants of: B1; test: self-cleavage kobs at 40 uM GlcN6P; higher = faster cleavage; RNA array
Summary of the method: (§1)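 Glucosamine-6-phosphate, from 40 μM to 10 mM in HEPES/KCl/Mg(OAc)2 buffer, was flowed over sequenced MiSeq chips carrying barcoded ribozyme variants transcribed in situ by E. coli RNA polymerase. A hybridised Cy3 probe tracked the variants at 37 °C as tiles were imaged over ~14 h. kobs, kcat and KM were obtained by fitting normalised per-tile medians to exponential decays and then applying weighted Michaelis–Menten fits across concentrations.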

glucosamine-6-phosphate [2] = variants of: B1; test: self-cleavage kobs at 2500 uM GlcN6P; higher = faster cleavage; RNA array
Summary of the method: as §1

glucosamine-6-phosphate [3] = variants of: B1; test: self-cleavage kobs at 10000 uM GlcN6P; higher = faster cleavage; RNA array
Summary of the method: as §1

glucosamine-6-phosphate [4] = variants of: B1; test: self-cleavage kobs at 640 uM GlcN6P; higher = faster cleavage; RNA array
Summary of the method: as §1

glucosamine-6-phosphate [5] = variants of: B1; test: self-cleavage kobs at 160 uM GlcN6P; higher = faster cleavage; RNA array
Summary of the method: as §1

| Variant | self-cleavage kobs at 40 uM GlcN6P (glucosamine-6-phosphate [1]) | self-cleavage kobs at 2500 uM GlcN6P (glucosamine-6-phosphate [2]) | self-cleavage kobs at 10000 uM GlcN6P (glucosamine-6-phosphate [3]) | self-cleavage kobs at 640 uM GlcN6P (glucosamine-6-phosphate [4]) | self-cleavage kobs at 160 uM GlcN6P (glucosamine-6-phosphate [5]) |
| --- | --- | --- | --- | --- | --- |
| AUAAAUGCGCCAGAACUACAGAAAUGUAGUUGACCAGGAGGAGGUUUAUCGAAAUUUCGGCGGAUGCCUCCAAA [A6U G35C U54A] | < 1e-05 s⁻¹ | – | – | – | – |
| AUAAAAACGCCAGAACUACAGAAAUGUACUUGACGAGGAGGAGGUUUAUCGAAUUUUCGGCGGAUGCCUCCAAA [G7A G29C] | < 1e-05 s⁻¹ | < 1e-05 s⁻¹ | – | – | – |
| AUAAAUGCGCCAGAACUACAGAAAUGUAGUUGACGAGGAGGAGGUUUAUCGAAUCUUCGGCGGAUGCCUCAAAA [A6U U55C C71A] | < 1e-05 s⁻¹ | – | – | – | – |
| AUAAAAAGCGCCAGAACACAGAAAUGUAGUAGACGAGGAGGAGGUUUAUCGAAUUUUCGGCGGAUGCCUCCAAA [G7A C8G G9C C10G A12C G13A A14G C16A U17C U31A] | 0.000115 ± 4.2e-05 s⁻¹ | – | 0.00555 ± 0.0017 s⁻¹ | – | – |
| AUAAAAACGCCAGAACUACAGAAAUGUAGUUAACGAGGAGGAGGUUUAUCGAAUUUUAGGCGGAUGCCUCCAAA [G7A G32A C58A] | < 1e-05 s⁻¹ | – | < 1e-05 s⁻¹ | – | – |
| AUAAAAACUCCAGAAAUACAGAAAUGUAGUUGACGAUGAGGAGGUUUAUCGAAUUUUCGGCGGACGCCUCCAAA [G7A G9U C16A G37U U65C] | < 1e-05 s⁻¹ | – | – | – | – |
| AUAAAUGCGCCAGAACUACAGAAAUGUAGUUGACGAGUAGGAGGUUUUUCGGAUUUUCGGCGGAUGCAGCCAAA [A6U G38U A48U A52G C68A U69G] | 7.26e-05 ± 3.3e-05 s⁻¹ | – | 8.71e-05 ± 2.3e-05 s⁻¹ | – | – |
| AUAAAAACGCCAGAACUACAGAAAUGUAGUUGACGAGGAGGAGGUUUAUCGGAUUUUCGGCGGAUGCCUCCAAA [G7A A52G] | < 1e-05 s⁻¹ | – | < 1e-05 s⁻¹ | < 1e-05 s⁻¹ | – |
| AUAAAUGCGCCAGAACUACAGAAAUGUAGUUGACGAGUAGGAGGUUUAUCGAAUUUUCGGCGGAUGCCUCAAAA [A6U G38U C71A] | < 1e-05 s⁻¹ | – | – | – | – |
| AUAAAAACGCCAGAACUACAGAAAUGUAGUUGACGAGGAGGAGGUUUAUCGACUUUUCGGCGGAUGCCUCCAAA [G7A A53C] | < 1e-05 s⁻¹ | < 1e-05 s⁻¹ | – | < 1e-05 s⁻¹ | < 1e-05 s⁻¹ |
| AUAAAUGCGCCAGAACUACAGAAAUGUAGUUGACGAGGAGGAGGUUUAUCGAAUUUUCCGCGGAUGCCUCGAAA [A6U G59C C71G] | < 1e-05 s⁻¹ | < 1e-05 s⁻¹ | < 1e-05 s⁻¹ | < 1e-05 s⁻¹ | < 1e-05 s⁻¹ |
| AUAAAUGCGCCAGAACUACAGAAAUGUAGUUGACGAGGACGAGGUUUAUCGAAUUUUCGGCGGAUGCCUCCAAA [A6U G40C] | < 1e-05 s⁻¹ | – | – | – | – |
| AUAAAAACGCCAGAACUACAGAAAUGUAGUUGACGAGGAGGAGGUUUAUCGAAUUUUCGGCGGAUGUCUCCAAA [G7A C67U] | < 1e-05 s⁻¹ | – | – | < 1e-05 s⁻¹ | < 1e-05 s⁻¹ |
| AUAAAUGCGCCAGAACUACAGAAAUGUAGUUGACGAGGAGCAGGUUUAUCGAAUUUUCGGCGGAUGCCUCCAAA [A6U G41C] | < 1e-05 s⁻¹ | < 1e-05 s⁻¹ | < 1e-05 s⁻¹ | – | < 1e-05 s⁻¹ |
| AUAAAUGCGCCAGAACUACAGAAAUGUAGUUGACGAGAAUGAGGUUUAUCCAAUUUUCGGCGGAUGCCUCCAAA [A6U G38A G40U G51C] | < 1e-05 s⁻¹ | – | – | – | – |
| AUAAAAACGCCAUAACUACAGAAAUGUAGUUGACGAGGAGGAGGUUUAUCGAAUUUUCGGCGGAUGCCGCAAAA [G7A G13U U69G C71A] | 0.00031 ± 7.3e-05 s⁻¹ | – | 0.000516 ± 0.00016 s⁻¹ | – | – |

| Variant | self-cleavage kobs at 40 uM GlcN6P (glucosamine-6-phosphate [1]) | self-cleavage kobs at 2500 uM GlcN6P (glucosamine-6-phosphate [2]) | self-cleavage kobs at 10000 uM GlcN6P (glucosamine-6-phosphate [3]) | self-cleavage kobs at 640 uM GlcN6P (glucosamine-6-phosphate [4]) | self-cleavage kobs at 160 uM GlcN6P (glucosamine-6-phosphate [5]) |
| --- | --- | --- | --- | --- | --- |
| AUAAAUGCGCCAGAACUACAGAAAUGUAGUUGACGAGGAGGAGGUGUAUCGAAUUUUAGGCGGAUGCCUCCAAA [A6U U46G C58A] | < 1e-05 s⁻¹ | – | – | – | – |
| AUAAAAACGCCAUCUCUACAGAAAUGUAGUUGACAAGGAGGAGGUUUAUCGAAUCUUCGGCGGGUGCCUCAAAA [G7A G13U A14C A15U G35A U55C A64G C71A] | < 1e-05 s⁻¹ | – | < 1e-05 s⁻¹ | – | – |
| AUAAAAACGCCAGAACUACAGAAAUGUAGUUGACGAGGAGGAGGUUUAUCGUAUUUUCGGCGCAUGCCUCCAAA [G7A A52U G63C] | < 1e-05 s⁻¹ | < 1e-05 s⁻¹ | – | < 1e-05 s⁻¹ | < 1e-05 s⁻¹ |
| AUAAAAACGCCAGAACUACAGAAAUGUAGUUGCCGAGGAGGAGGUUUAUCGAAUUUCCGGCGAAUGCCUCCAAA [G7A A33C U57C G63A] | < 1e-05 s⁻¹ | – | – | – | – |
| AUAAAUGCGCCAGAACUACAGAAAUGUAGUUGACGAGAAGGAGGUUUAUCGAAUUUUCGGCGGAUGCCUCCAAA [A6U G38A] | < 1e-05 s⁻¹ | – | – | – | – |
| AUAAAAACGCCAGAACUACAGAAAUGUAGUUGACGAGGAGGAGGUUUUGCGAAUUUUCGGCGGAUGCCUCCAAA [G7A A48U U49G] | < 1e-05 s⁻¹ | – | < 1e-05 s⁻¹ | – | – |
| AUAAAAACGCCAAAACUACAGAAAUGUAGUUGACGAGGAGGAGGUUUAUCGAAUUUUCGGCGGAUGCCUCCAAA [G7A G13A] | < 1e-05 s⁻¹ | – | < 1e-05 s⁻¹ | < 1e-05 s⁻¹ | < 1e-05 s⁻¹ |
| AUAAAAACGCCAUAACUACAGAAAUGUAGUUGACGAGGAGGAGGUUUAUCGAAUUUUCGGCGGAUGCCUCCAAA [G7A G13U] | < 1e-05 s⁻¹ | – | – | < 1e-05 s⁻¹ | < 1e-05 s⁻¹ |
| AUAAAUGCGCCAGAACUACAGAAAUGUAGUUGACGAGGAGGAGGUUUAUCUAAUUUUCGGCGGAUGCCUCCAAA [A6U G51U] | < 1e-05 s⁻¹ | < 1e-05 s⁻¹ | < 1e-05 s⁻¹ | < 1e-05 s⁻¹ | < 1e-05 s⁻¹ |
| AUAAAAACGCCUGAACUACAGAAAUGUAGUUGACGAGGAGGAGGUUUAUCGAAUUUUCGGCGGAUGCCUCCAAA [G7A A12U] | < 1e-05 s⁻¹ | 2.22e-05 ± 8.3e-06 s⁻¹ | 7.91e-05 ± 2e-05 s⁻¹ | – | < 1e-05 s⁻¹ |
| AUAAAUGCGCCAGAACUACAGAAAUGUAGUUGACGACGAGCAGGUUCUUCGAAUUUUCUGCGGAUGCCUCCAAA [A6U G37C G41C U47C A48U G59U] | < 1e-05 s⁻¹ | – | < 1e-05 s⁻¹ | – | – |
| AUAAAUGCGCCAGAACUACAGAAAUGUAGUCGACGAGGAGGAGGUUUAUGGAAUUUUCGGCGGAUGCCUCCAAA [A6U U31C C50G] | 7.08e-05 ± 1.6e-05 s⁻¹ | – | 3.4e-05 ± 1.4e-05 s⁻¹ | – | – |
| AUAAAAACGCCAGAACUACAGAAAUGUAGUUAACGAGGAGGAGGUUUAUCAAAUUUUCGGCCGAUGCAUCCAAA [G7A G32A G51A G62C C68A] | < 1e-05 s⁻¹ | – | – | – | < 1e-05 s⁻¹ |
| AUAAAAACGCCAGAACUACAGAAAUGUAGUUGACGAGGAGGAGGUUUAUGGAAUUUUCGGCGGAUGCCUCCAAA [G7A C50G] | 4.24e-05 ± 1.5e-05 s⁻¹ | – | – | – | 6.67e-05 ± 2e-05 s⁻¹ |
| AUAAAAACGCCAGAACUACAGAAAUGUAGUUGACGAGGAGGAGGUUUCUCGAAUUUUCGGCGGAUGCCUCCAAA [G7A A48C] | < 1e-05 s⁻¹ | – | < 1e-05 s⁻¹ | < 1e-05 s⁻¹ | < 1e-05 s⁻¹ |
